Laboratory results reported in article PMC4996508.

Target: Neurospora crassa importin-α (residues 75-529) (Neurospora crassa)
Experiment: ITC; importin-α (50 μM) in the cell, PAC-3 NLS peptide (500 μM) titrated from the syringe; 20°C; 20 mM Tris-HCl pH 8.0, 100 mM NaCl; single binding site model

Neurospora crassa importin-α (residues 75-529) (Neurospora crassa), sequence (G5EB89 other isoform, or with tags, fused parts or gaps): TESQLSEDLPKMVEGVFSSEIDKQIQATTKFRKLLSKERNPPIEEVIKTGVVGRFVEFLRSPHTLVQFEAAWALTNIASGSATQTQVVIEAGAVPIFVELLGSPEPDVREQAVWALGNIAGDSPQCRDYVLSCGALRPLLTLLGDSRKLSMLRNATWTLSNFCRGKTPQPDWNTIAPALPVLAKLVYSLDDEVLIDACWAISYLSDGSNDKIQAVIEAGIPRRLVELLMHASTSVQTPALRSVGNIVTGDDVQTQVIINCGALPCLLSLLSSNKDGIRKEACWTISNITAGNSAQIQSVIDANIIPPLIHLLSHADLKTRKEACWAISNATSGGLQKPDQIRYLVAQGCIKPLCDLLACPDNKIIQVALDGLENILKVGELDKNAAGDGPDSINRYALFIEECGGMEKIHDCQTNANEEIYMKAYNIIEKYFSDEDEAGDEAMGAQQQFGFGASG
PAC-3 NLS peptide, sequence (peptide): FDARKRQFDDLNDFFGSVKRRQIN

Kd: 390 nM
dH: -12.1 kcal/mol
stoichiometry N: 1
Substance: PAC-3 NLS peptide
